What all share (test): ITC; MicroCal iTC200, 25°C, 20 mM Tris/HCl pH 9.0, 100 mM NaCl; SH3B6, sdAb19 or Neffin at 200 μM injected from the syringe into 20 μM Nef in the cell
(Isothermal titration calorimetry measures the heat released or taken up as one component is titrated into another.)

Assay [1] concerns the target HIV-1 NefSF2 (45–210, C59S, C210A) (HIV-1 (SF2)) (UniProt P03407).
Assay [2] deals with HIV-1 Nef_(NL4–3) (41–206, C206A) (HIV-1 (NL4-3)).
Assay [3] concerns the target HIV-1 NefNA7 (41–206, C206A) (HIV-1 (NA7)).

pKd: −log10 of the molar value.

On to “Neffin_(triple) (Neffin with D60R/G102R/S103E in the sdAb19 subunit) (from UniProt P08631 77-138) (designed binder)”, for which, in assay [1], the pKd – broadly, −log10 of the Kd, conventionally taken in molar units – is 7.63; the dH was -18.1 kcal/mol; the stoichiometry N (commonly a count of units in the complex or per binding partner) was 1.08.
In assay [1], “human Hck-SH3B6 (residues 79–138 of human Hck) (from UniProt P08631 79-138) (designed binder)” showed a pKd of 7.73, a dH of -22.5 kcal/mol and a stoichiometry N of 0.81.
“Neffin (sdAb19–SH3B6 fusion, 8 aa linker) (from UniProt P08631 77-138) (designed binder)”: in assay [2], the pKd was 8.41, the dH was -33.2 kcal/mol and the stoichiometry N came to 0.65. In assay [1], this substance showed a pKd of 8.80, a dH of -38.3 kcal/mol and a stoichiometry N of 0.66. In assay [3], this substance had a pKd of 7.84, a dH of -34.7 kcal/mol and a stoichiometry N of 0.67.

The values are drawn from publication PMC4007562.
